Here are results for 143 substances from the supplement of paper PMC12042874.

± gives the uncertainty stated by the source.

The series can be described thus: amyloid nucleation score (Sup35N fusion, yeast selection) (log enrichment); library NNK2; higher = more nucleation; inactive = no reads after selection. In outline:
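Psi-negative yeast expressed Sup35N fused to peptides of 20 random codons. They were induced 24 hours with 100 μM copper sulfate, grown 7 days at 30°C without adenine and uracil, and their plasmid inserts from input and output were Illumina-sequenced. The nucleation score is the DiMSum log enrichment of output over input reads, centred on the mode score of non-aggregating sequences. Sequences with under 100 input reads were excluded.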
The substance LNMMFYYLRFRMHFRWMDC displayed an amyloid nucleation score of -0.79 ± 0.38.
To KSFSCVCPWFGH belongs 10.32 ± 0.031; to SCCFSMGGPVNVVQSSRMVR, -0.781 ± 0.55; to SHCPVRYMVGIS, -1.02 ± 0.78.
To SLEFCLVWFSSMRRMCV belongs 0.673 ± 0.48; to HWSLGSYFGYNFGR, 5.67 ± 0.062; to VSDNGFFNRYNMTNCRIHGV, 0.449 ± 0.57.
For VWYSDDWSWWGARRLCKNRR, the amyloid nucleation score was 0.236 ± 1.1.
In turn, STNSDFLYQKNLPMVSSGNI yielded an amyloid nucleation score of -0.408 ± 0.79.
On to LSIRWLTSCYLYGLLGSSGK, for which the amyloid nucleation score amounted to 0.256 ± 0.29.
To ISPLLNVYRDYWLYMF belongs -1.37 ± 0.75; to VTLMSV, 0.504 ± 0.74.
To WIKLAFDWKQF belongs -1.18 ± 0.55; to EMSVRPGVSRKIWS, 0.43 ± 0.49; to YVPDGAQARLDASIFIVCSR, 5.23 ± 0.055.
To LAMEWSRCRTGPL belongs 1.68 ± 0.15; to LSAVLSAHIMVCLGYAYLG, “inactive”.
With TMWGNI, the amyloid nucleation score is -1.59 ± 0.48.
Take NQALTTSPHSYIRFSCTCMF: the amyloid nucleation score was found to be 3.89 ± 0.14.
To INSAGNLPQERTVLGYFHCS belongs -1.44 ± 0.62; to LWSEGMTLASADCR, 0.721 ± 0.22.
The value for CCPASYMQYEFLGRMSGGCW was 2.82 ± 0.15; that for SRFYILRL was 2.25 ± 0.098.
The value for GYCLSVTSR was 0.641 ± 0.74; that for SMYSLTVVNLRVRFLVVWGW was 0.615 ± 0.5; that for HESHHSALFDCLGWQVLVWL was 6.827 ± 0.049.
As to FCELLIVAVLLQGDSLKPQS, the amyloid nucleation score came to 0.485 ± 0.36.
The value for SGYVLNAELNAASLLMCGIG was 0.252 ± 0.74.
To LGNRVRMSWNW belongs 0.807 ± 0.44; to GYPSARIKSDMYWNPMNVPT, -0.114 ± 0.37.
The value for NCVWNWRHWFTVVNSF was 1.95 ± 0.089; that for SIFFARLVVEKSMIQLG was 0.21 ± 0.41.
In the case of VTRTDVKPKVVGRRRARLCL, the amyloid nucleation score was determined as 0.705 ± 0.44.
To FSNTYHFCISNYMWLNEVLM belongs 1.36 ± 0.19.
On to SRVSLYQML, for which the amyloid nucleation score was -1.01 ± 0.34.
To LHSNCRV belongs 0.343 ± 0.8.
The value for ILAITRINA was 1.19 ± 0.13.
To SRKSFLLCILLCSITLPLAR belongs -1.09 ± 0.44; to TLRHSKFTSIPVIETGLCGV, -1.44 ± 1.1; to VIYSYMSGIVYGVMRSSPFW, “inactive”.
The substance GLRLFKMKDFC registered an amyloid nucleation score of 2.14 ± 0.21.
To YSCVDAYG belongs “inactive”.
The value for TLDTSYYFLTRVFNHLNISE was -0.776 ± 0.55; that for QMCIVDTNGRN was 0.861 ± 0.6; that for MASTIWIMLVYDLNARKMHI was 4.87 ± 0.073.
Substance FLTLATSTCGPACVW registered an amyloid nucleation score of 6.99 ± 0.07.
The value for GLRWNKFYKCTEVCMCRGSS was 2.58 ± 0.15; that for DMNEDVGLGNKFC was 0.119 ± 0.54.
Substance MTCCF gave an amyloid nucleation score of -0.877 ± 1.1.
The value for VRMEVIFYC was 2.54 ± 0.2.
To FYLRNSVMCTGPDLGNSTYM belongs -1.15 ± 1.1; to GCGGAHY, -0.633 ± 0.29.
The value for VINSLMWKFTVIMRGVMNRI was 0.12 ± 0.25.
LLKLCRRIKDATFDSLPGCA came in with an amyloid nucleation score of 0.93 ± 0.31.
To MGVLWMFFSF belongs 0.03 ± 0.4; to NGPVQIASGGRRVPLLWEVL, 0.098 ± 0.79.
The value for LTGLVSLPRCWTIWVPWREG was 1.43 ± 0.25.
To NEIARILEVRIGVEGYGGIF belongs -0.722 ± 0.3.
The substance FAIHLKLMYVGTDFSNVRDI gave an amyloid nucleation score of -1.15 ± 0.76.
Turning to EICLDAITVVPLHGSIRLTV, the amyloid nucleation score is 0.764 ± 0.25.
To YFFKRIW belongs “inactive”; to HMSCMSLSVIFDIILNLCSL, 6.097 ± 0.06.
VNYVDGWV came in with an amyloid nucleation score of 1.45 ± 0.34.
The value for VSYKWNGEWVRAPFDLQGCI was -0.464 ± 1.1; that for QVCDRILTWSRLPLSISRVR was 0.062 ± 0.79.
Regarding PCLMEGFTS, the amyloid nucleation score is -0.849 ± 0.64.
The value for MSGVSAVLRDLFKYVELIIR was “inactive”; that for RPLSAEACPYVCTVSWDGLW was 1.02 ± 0.14; that for YRLIDVYWS was -0.632 ± 1.1.
In turn, IYPDKSFMALFPMVIDFYTQ showed an amyloid nucleation score of -2.19 ± 0.62.
The substance VNIVSIVYKGDNN gave an amyloid nucleation score of 7.72 ± 0.075.
The substance RGINDILRFKS had an amyloid nucleation score of 0.494 ± 0.44.
The value for IDRCRNC was “inactive”.
The value for YPYDWSLLVLELVRQILSMG was 0.704 ± 0.47; that for RGSGSVMNSGYEAASRRLGG was -0.12 ± 0.46; that for SVIITIGLSIKSALRFRRFQ was 4.57 ± 0.058.
The value for DSVGMVRTLVWDWGQATNGR was 0.953 ± 0.51.
MEGITRFSPPKNSEYIVLAG: the amyloid nucleation score was -0.613 ± 0.44.
Turning to LTTPGQNLLILWTLSNMFMI, the amyloid nucleation score entry is “inactive”.
To RRIGFDAPDVSRYVALLYWD belongs -0.106 ± 0.32; to PIRVSSSVVSWYYFGNSRIW, -1.09 ± 0.62.
To MCHVKFIT belongs 3.18 ± 0.067; to CQSCYYHNR, -0.77 ± 0.21; to MLARFSSHVPGTDVNPIGRQ, 0.317 ± 0.5.
To ISPEYVSTALLTECTWRVLR belongs 0.215 ± 0.46; to YMSYNYGTVLEFLELPDSHR, 1.56 ± 0.11.
With YNCSI, the amyloid nucleation score was determined as 4.29 ± 0.11.
The substance SKAECLMH showed an amyloid nucleation score of -0.547 ± 1.1.
To SLKEESFESVMNVG belongs 3.87 ± 0.059; to KSTGDCFLKMINYYCGWS, 6.066 ± 0.052.
To VTIFILFSLNSGGHGSDRVW belongs 4.849 ± 0.031; to SHMIRYRSVDRVHGLFHPQS, -0.232 ± 0.37; to RPGYNQMDFDWRLLIDVFDG, -0.133 ± 1.
Consider VFVRRVGPQLFDPRSSNGVD, for which the amyloid nucleation score was 0.951 ± 0.81.
The substance VSRFDA registered an amyloid nucleation score of 0.306 ± 0.31.
The value for YFDGVIWLLTYRIFMANDYS was “inactive”.
To RYMGGIWKSIRTS belongs 0.061 ± 0.21.
To GMGIHFKASGRGPLIVGERD belongs 0.75 ± 0.44.
The substance SVDIHGTFWHILYSIAPDQV returned an amyloid nucleation score of 1.75 ± 0.23.
To SSLDRKAVLAILSSTYLLRL belongs 2.33 ± 0.23.
The value for CDFDIHERMCPYCYIIQVGD was -0.081 ± 0.65; that for RSHATFRSSSLIPGVEV was 0.409 ± 0.23.
The value for HLDYAGYIGDRSHTDFASGR was 0.519 ± 0.46; that for RKDLEVLNGLRICMVGSAPV was -0.055 ± 1.1; that for GICKALARYYFSIYDWQVTE was 0.049 ± 1.1.
Consider WLQSETIHDVRSLRWVSIKC, for which the amyloid nucleation score was found to be 0.043 ± 0.74.
The value for GKVRRIIWLSCKNG was 1.05 ± 0.54; that for FNVFFAS was 5.97 ± 0.055; that for HIMSIDVPSNLSLQFIMVGY was 0.306 ± 0.64.
To YIDGDNYHGILCHSRV belongs 3.86 ± 0.11.
To GVGEEGARVKWIVCNKCFFP belongs 2.1 ± 0.12; to FVLSDQK, 0.347 ± 0.21; to LWGVYD, -0.212 ± 0.65.
Consider VWLTMKVAILPCSQRIEKMV, for which the amyloid nucleation score worked out at 1.47 ± 0.38.
In turn, LTCFSPLVRLEGA returned an amyloid nucleation score of -0.212 ± 0.49.
The value for RGSRVLSFILLRISNWIFQD was -0.239 ± 0.76; that for HWKAFYL was 1.13 ± 0.59.
To WLMKINRT belongs 0.129 ± 0.26; to DTGSGAPVIKYCVAVPRSFT, 0.306 ± 0.57; to ANRNRYNLHWDMG, 0.946 ± 0.6.
In turn, VVEGGRFLVDSRWKVVSRGC had an amyloid nucleation score of -0.719 ± 0.38.
The value for LSIMHYIIYRLDFAFSWKGG was -1.05 ± 1.1; that for PNSPRMNESLSFIFPGDVSG was -0.474 ± 1; that for LAFAILFPFGSLRDGST was 0.585 ± 0.8.
To SNAVLWNTGIFIKKYC belongs -1.38 ± 0.64; to DICVKSRRSRPRV, 0.591 ± 0.51.
The value for HSFTTMFWNSAMY was 4.11 ± 0.062.
For SSTVAGAIIE, the amyloid nucleation score was found to be 0.575 ± 0.18.
The value for LYSCCLQCSSTNSIYEDLMC was “inactive”; that for RINQLLTPLTWQERGP was 3.38 ± 0.06.
In turn, LNGCGVLRPVR gave an amyloid nucleation score of 5.89 ± 0.067.
The value for LFKPLRNR was -0.918 ± 0.33; that for RRTSYLCWFAGYFGLI was -0.295 ± 0.45.
To NETLSTCCLYHFKG belongs 4.04 ± 0.046; to LLNSCSTVESWCNLGEMDKY, 0.122 ± 1.1; to RIDVAI, -0.457 ± 0.76.
To AVSIGLYFVQASP belongs 9.658 ± 0.052.
Substance QWMVLQSDRGAEMIARA yielded an amyloid nucleation score of 1.29 ± 0.2.
To PQSWCFFPNFDKGLVLVRRQ belongs 0.801 ± 0.82; to WGCWTVRSTT, 0.92 ± 0.46; to FHGAYIGASSVNDPSVSD, 5.322 ± 0.04.
As for LEGFTRA, the amyloid nucleation score is -0.909 ± 0.36.
To TSSLDEEALS belongs -0.648 ± 0.55.
